T1: CEACAM1 (Sino Biological) (human, UniProt P13688 35-428, limits assumed)
T1 construct: may be the same as CEACAM1-HIS; also called hCEACAM1; biotinylated soluble CEACAM1
T1 sequence: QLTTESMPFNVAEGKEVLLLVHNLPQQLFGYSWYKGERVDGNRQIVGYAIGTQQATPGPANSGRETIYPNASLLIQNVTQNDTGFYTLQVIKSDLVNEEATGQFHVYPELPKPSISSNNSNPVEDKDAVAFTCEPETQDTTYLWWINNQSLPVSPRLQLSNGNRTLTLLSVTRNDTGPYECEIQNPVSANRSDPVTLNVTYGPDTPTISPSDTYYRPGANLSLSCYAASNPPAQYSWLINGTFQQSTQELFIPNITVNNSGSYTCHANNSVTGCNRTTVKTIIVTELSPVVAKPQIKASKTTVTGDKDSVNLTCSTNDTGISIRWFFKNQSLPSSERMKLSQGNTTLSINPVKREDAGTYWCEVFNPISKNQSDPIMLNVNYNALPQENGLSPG


Each binder was assayed against T1, CEACAM1 (Sino Biological) (assay: SPR single-cycle).
Procedure: To assess the binding of the humanized affinity matured IgGs, single cycle kinetics analysis was performed on crude supernatants using a Biacore T200 running Biacore T200 Control Software V2.0.1 and Biacore T200 Evaluation Software V3.0 (Uppsala, Sweden). Antibodies were diluted in HBS-P+ (GE Healthcare) to a final concentration of […]. At the start of each cycle, antibodies were loaded onto Fc2, Fc3 and Fc4 of the Protein A chip (GE Healthcare). IgGs were captured at a flow rate of 10 μl/min to give an immobilization level (RL) of ˜100 RU (a level calculated to obtain an Rmax of ˜50-150 RU once the analyte is bound). The surface was then allowed to stabilize. Single cycle kinetics data was obtained with CEACAM1 as the analyte at a flow rate of […] to minimize any potential mass transfer effects. Multiple repeats with the parent (VH2 N56Q/Vκ4 S27(f)A) antibody were performed to check the stability of the surface and analyte over the kinetic cycles. The signal from the reference channel Fc1 (no antibody) was subtracted from that of Fc2, Fc3 and Fc4 to correct for differences in non-specific binding to the reference surface. A three point, two-fold dilution range from 25 nM to 100 nM CEACAM 1 without regeneration between each concentration was used. The signal from each antibody blank run (no CEACAM1) was subtracted to correct for differences in surface stability. The association phase for the three injections of increasing concentrations of CEACAM1 was monitored for 200 seconds each time and a single dissociation phase was measured for 300 seconds following the last injection of CEACAM1. Regeneration of the Protein A surface was conducted using two injections of 10 mM glycine-HCL pH 1.5 followed by a stabilization period of 240 seconds.

Kd	fold better than Parent (KD)	Binder
78 nM	2.03 fold	He3/Parent VL (antibody, IgG4, V domains shown, IgG4 S241P, kappa) VH: EVQLLESGGGLVQPGGSLRLSCAASGFSFSDYYLYWVRQAPGKGLEWVATISVGGGQTSYADSVKGRFTISRDNSKNTLYLQMNSLRAEDTAMYYCTRALTYGPAWLAYWGQGTLVTVSS VL: not shown
55 nM	2.87 fold	He4/L3 (antibody, IgG4, V domains shown, IgG4 S241P, kappa) VH: EVQLLESGGGLVQPGGSLRLSCAASGFSFSDYYLYWVRQAPGKGLEWVATISVGGGQTSYADSVKGRFTISRDNSKNTLYLQMNSLRAEDTAMYYCTRALYYGPAWFAYWGQGTLVTVSS VL: DIVMTQSPDSLAVSLGERATINCKSSQSLLNSANQKNYLAWYQQKPGQPPKLLIYFASTRESGVPDRFSGSGSGTDFTLTISSLQAEDVAVYYCQSHFPFPFTFGGGTKVEIK
76 nM	2.09 fold	He4/L2 (antibody, IgG4, V domains shown, IgG4 S241P, kappa) VH: EVQLLESGGGLVQPGGSLRLSCAASGFSFSDYYLYWVRQAPGKGLEWVATISVGGGQTSYADSVKGRFTISRDNSKNTLYLQMNSLRAEDTAMYYCTRALYYGPAWFAYWGQGTLVTVSS VL: DIVMTQSPDSLAVSLGERATINCKSSQSLLNSANQKNYLAWYQQKPGQPPKLLIYFASTRESGVPDRFSGSGSGTDFTLTISSLQAEDVAVYYCQSHYPFPYTFGGGTKVEIK
83 nM	1.91 fold	He4/L4 #1 (antibody, IgG4, V domains shown, IgG4 S241P, kappa) VH: EVQLLESGGGLVQPGGSLRLSCAASGFSFSDYYLYWVRQAPGKGLEWVATISVGGGQTSYADSVKGRFTISRDNSKNTLYLQMNSLRAEDTAMYYCTRALYYGPAWFAYWGQGTLVTVSS VL: DIVMTQSPDSLAVSLGERATINCKSSQSLLNSANQKNYLAWYQQKPGQPPKLLIYFASTRESGVPDRFSGSGSGTDFTLTISSLQAEDVAVYYCQSHFPYYYTFGGGTKVEIK
68 nM	2.36 fold	He4/L5 (antibody, IgG4, V domains shown, IgG4 S241P, kappa) VH: EVQLLESGGGLVQPGGSLRLSCAASGFSFSDYYLYWVRQAPGKGLEWVATISVGGGQTSYADSVKGRFTISRDNSKNTLYLQMNSLRAEDTAMYYCTRALYYGPAWFAYWGQGTLVTVSS VL: DIVMTQSPDSLAVSLGERATINCKSSQSLLNSANQKNYLAWYQQKPGQPPKLLIYFASTRESGVPDRFSGSGSGTDFTLTISSLQAEDVAVYYCQSHYPFAFTFGGGTKVEIK
127 nM	4.34 fold	He4/L4#2 (antibody, IgG4, V domains shown, IgG4 S241P, kappa) VH: EVQLLESGGGLVQPGGSLRLSCAASGFSFSDYYLYWVRQAPGKGLEWVATISVGGGQTSYADSVKGRFTISRDNSKNTLYLQMNSLRAEDTAMYYCTRALYYGPAWFAYWGQGTLVTVSS VL: DIVMTQSPDSLAVSLGERATINCKSSQSLLNSANQKNYLAWYQQKPGQPPKLLIYFASTRESGVPDRFSGSGSGTDFTLTISSLQAEDVAVYYCQSHYPYPYTFGGGTKVEIK
64 nM	2.49 fold	He4/L1 (antibody, IgG4, V domains shown, IgG4 S241P, kappa) VH: EVQLLESGGGLVQPGGSLRLSCAASGFSFSDYYLYWVRQAPGKGLEWVATISVGGGQTSYADSVKGRFTISRDNSKNTLYLQMNSLRAEDTAMYYCTRALYYGPAWFAYWGQGTLVTVSS VL: DIVMTQSPDSLAVSLGERATINCKSSQSLLNSANQKNYLAWYQQKPGQPPKLLIYFASTRESGVPDRFSGSGSGTDFTLTISSLQAEDVAVYYCQSHYPFYYTFGGGTKVEIK
72 nM	2.22 fold	He4/L6 (antibody, IgG4, V domains shown, IgG4 S241P, kappa) VH: EVQLLESGGGLVQPGGSLRLSCAASGFSFSDYYLYWVRQAPGKGLEWVATISVGGGQTSYADSVKGRFTISRDNSKNTLYLQMNSLRAEDTAMYYCTRALYYGPAWFAYWGQGTLVTVSS VL: DIVMTQSPDSLAVSLGERATINCKSSQSLLNSANQKNYLAWYQQKPGQPPKLLIYFASTRESGVPDRFSGSGSGTDFTLTISSLQAEDVAVYYCQSHYPFSFTFGGGTKVEIK

Source: US20250388666A1 (BRIGHAM AND WOMEN S HOSPITAL, published 2025)
